B1: Creatine Kinase, Muscle type (enzyme)
chain: not shown
B2: ALDOA_MOUSE (enzyme)
chain: PHPYPALTPEQKKELSDIAHRIVAPGKGILAADESTGSIAKRLQSIGTENTEENRRFYRQLLLTADDRVNPCIGGVILFHETLYQKADDGRPFPQVIKSKGGVVGIKVDKGVVPLAGTNGETTTQGLDGLSERCAQYKKDGADFAKWRCVLKIGEHTPSALAIMENANVLARYASICQQNGIVPIVEPEILPDGDHDLKRCQYVTEKVLAAVYKALSDHHVYLEGTLLKPNMVTPGHACTQKFSNEEIAMATVTALRRTVPPAVTGVTFLSGGQSEEEASINLNAINKCPLLKPWALTFSYGRALQASALKAWGGKKENLKAAQEEYIKRALANSLACQGKYTPSGQSGAAASESLFISNHAY
B3: IGHG_RABIT (other)
chain: GQPKAPSVFPLAPCCGDTPSSTVTLGCLVKGYLPEPVTVTWNSGTLTNGVRTFPSVRQSSGLYSLSSVVSVTSSSQPVTCNVAHPATNTKVDKTVAPSTCSKPTCPPPELLGGPSVFIFPPKPKDTLMISRTPEVTCVVVDVSQDDPEVQFTWYINNEQVRTARPPLREQQFNSTIRVVSTLPITHQDWLRGKEFKCKVHNKALPAPIEKTISKARGQPLEPKVYTMGPPREELSSRSVSLTCMINGFYPSDISVEWEKNGKAEDNYKTTPAVLDSDGSYFLYNKLSVPTSEWQRGDVFTCSVMHEALHNHYTQKSISRSPGK
B4: Annexin 2 (mouse) (other)
chain: STVHEILCKLSLEGDHSTPPSAYGSVKPYTNFDAERDALNIETAVKTKGVDEVTIVNILTNRSNVQRQDIAFAYQRRTKKELPSALKSALSGHLETVILGLLKTPAQYDASELKASMKGLGTDEDSLIEIICSRTNQELQEINRVYKEMYKTDLEKDIISDTSGDFRKLMVALAKGRRAEDGSVIDYELIDQDARELYDAGVKRKGTDVPKWISIMTERSVCHLQKVFERYKSYSPYDMLESIKKEVKGDLENAFLNLVQCIQNKPLYFADRLYDSMKGKGTRDKVLIRIMVSRSEVDMLKIRSEFKRKYGKSLYYYIQQDTKGDYQKALLYLCGGDD
B5: Annexin 1 (mouse) (other)
chain: AMVSEFLKQARFLENQEQEYVQAVKSYKGGPGSAVSPYPSFNVSSDVAALHKAIMVKGVDEATIIDILTKRTNAQRQQIKAAYLQENGKPLDEVLRKALTGHLEEVVLAMLKTPAQFDADELRGAMKGLGTDEDTLIEILTTRSNEQIREINRVYREELKRDLAKDITSDTSGDFRKALLALAKGDRCQDLSVNQDLADTDARALYEAGERRKGTDVNVFTTILTSRSFPHLRRVFQNYGKYSQHDMNKALDLELKGDIEKCLTTIVKCATSTPAFFAEKLYEAMKGAGTRHKALIRIMVSRSEIDMNEIKVFYQKKYGISLCQAILDETKGDYEKILVALCGGN
B6: ENOA_MOUSE (enzyme)
chain: SILRIHAREIFDSRGNPTVEVDLYTAKGLFRAAVPSGASTGIYEALELRDNDKTRFMGKGVSQAVEHINKTIAPALVSKKVNVVEQEKIDKLMIEMDGTENKSKFGANAILGVSLAVCKAGAVEKGVPLYRHIADLAGNPEVILPVPAFNVINGGSHAGNKLAMQEFMILPVGASSFREAMRIGAEVYHNLKNVIKEKYGKDATNVGDEGGFAPNILENKEALELLKTAIAKAGYTDQVVIGMDVAASEFYRSGKYDLDFKSPDDPSRYITPDQLADLYKSFVQNYPVVSIEDPFDQDDWGAWQKFTASAGIQVVGDDLTVTNPKRIAKAASEKSCNCLLLKVNQIGSVTESLQACKLAQSNGWGVMVSHRSGETEDTFIADLVVGLCTGQIKTGAPCRSERLAKYNQILRIEEELGSKAKFAGRSFRNPLAK
B7: CISY_MOUSE (enzyme)
chain: ASSTNLKDVLSNLIPKEQARIKTFKQQHGKTVVGQITVDMMYGGMRGMKGLVYETSVLDPDEGIRFRGYSIPECQKMLPKAKGGEEPLPEGLFWLLVTGQMPTEEQVSWLSREWAKRAALPSHVVTMLDNFPTNLHPMSQLSAAITALNSESNFARAYAEGMNRAKYWELIYEDCMDLIAKLPCVAAKIYRNLYREGSSIGAIDSRLDWSHNFTNMLGYTDPQFTELMRLYLTIHSDHEGGNVSAHTSHLVGSALSDPYLSFAAAMNGLAGPLHGLANQEVLVWLTQLQKEVGKDVSDEKLRDYIWNTLNSGRVVPGYGHAVLRKTDPRYSCQREFALKHLPKDPMFKLVAQLYKIVPNILLEQGKAKNPWPNVDAHSGVLLQYYGMTEMNYYTVLFGVSRALGVLAQLIWSRALGFPLERPKSMSTDGLMKFVDSK
B8: LYZ1_MOUSE (enzyme)
chain: KVYNRCELARILKRNGMDGYRGVKLADWVCLAQHESNYNTRATNYNRGDRSTDYGIFQINSRYWCNDGKTPRSKNACGINCSALLQDDITAAIQCAKRVVRDPQGIRAWVAWRTQCQNRDLSQYIRNCGV
B9: PRDX1_MOUSE (enzyme)
chain: SSGNAKIGYPAPNFKATAVMPDGQFKDISLSEYKGKYVVFFFYPLDFTFVCPTEIIAFSDRADEFKKLNCQVIGASVDSHFCHLAWINTPKKQGGLGPMNIPLISDPKRTIAQDYGVLKADEGISFRGLFIIDDKGILRQITINDLPVGRSVDEIIRLVQAFQFTDKHGEVCPAGWKPGSDTIKPDVNKSKEYFSKQK
B10: QCR2_MOUSE (other)
chain: SLKVAPKVKTSAAPGGVPLQPQDLEFTKLPNGLVIASLENYAPLSRIGLFVKAGSRYEDSNNLGTSHLLRLASSLTTKGASSFKITRGIEAVGGKLSVTATRENMAYTVEGIRSDIEILMEFLLNVTTAPEFRRWEVAALRSQLKIDKAVAFQNSQTRIIENLHDVAYKNALANPLYCPDYRMGKITSEELHYFVQNHFTSARMALVGLGVSHSVLKQVAEQFLNMRGGLGLAGAKAKYRGGEIREQNGDNLVHAAIVAESAAIGNAEANAFSVLQHLLGAGPHIKRGNNTTSLLSQSVAKGSHQPFDVSAFNASYSDSGLFGIYTISQAAAAGEVINAAYNQVKAVAQGNLSSADVQAAKNKLKAGYLMSVETSEGFLSEIGSQALAAGSYMPPSTVLQQIDSVADADVVKAAKKFVSGKKSMAASGNLGHTPFLDEL
B11: ENOB_MOUSE (enzyme)
chain: AMQKIFAREILDSRGNPTVEVDLHTAKGRFRAAVPSGASTGIYEALELRDGDKARYLGKGVLKAVEHINKTLGPALLEKKLSVVDQEKVDKFMIELDGTENKSKFGANAILGVSLAVCKAGAAEKGVPLYRHIADLAGNPDLVLPVPAFNVINGGSHAGNKLAMQEFMILPVGASSFKEAMRIGAEVYHHLKGVIKAKYGKDATNVGDEGGFAPNILENNEALELLKTAIQAAGYPDKVVIGMDVAASEFYRNGKYDLDFKSPDDPARHISGEKLGELYKNFIQNYPVVSIEDPFDQDDWATWTSFLSGVDIQIVGDDLTVTNPKRIAQAVEKKACNCLLLKVNQIGSVTESIQACKLAQSNGWGVMVSHRSGETEDTFIADLVVGLCTGQIKTGAPCRSERLAKYNQLMRIEEALGDKAVFAGRKFRNPKAK
B12: EF1A1_MOUSE (other)
chain: GKEKTHINIVVIGHVDSGKSTTTGHLIYKCGGIDKRTIEKFEKEAAEMGKGSFKYAWVLDKLKAERERGITIDISLWKFETSKYYVTIIDAPGHRDFIKNMITGTSQADCAVLIVAAGVGEFEAGISKNGQTREHALLAYTLGVKQLIVGVNKMDSTEPPYSQKRYEEIVKEVSTYIKKIGYNPDTVAFVPISGWNGDNMLEPSANMPWFKGWKVTRKDGSASGTTLLEALDCILPPTRPTDKPLRLPLQDVYKIGGIGTVPVGRVETGVLKPGMVVTFAPVNVTTEVKSVEMHHEALSEALPGDNVGFNVKNVSVKDVRRGNVAGDSKNDPPMEAAGFTAQVIILNHPGQISAGYAPVLDCHTAHIACKFAELKEKIDRRSGKKLEDGPKFLKSGDAAIVDMVPGKPMCVESFSDYPPLGRFAVRDMRQTVAVGVIKAVDKKAAGAGKVTKSAQKAQKAK
B13: FBX50_MOUSE (other)
chain: MEKTQDRDTLSGRMEAEGSLNSEELPPHPQSPPPPPSPRSPTSPVTPELPQPNAPTEVEARQLLVEEWGPLSGKLELPPRISWQLLFLERPLYRNLLSSPNPEGINIYQPAPPTGPTRKPLKELGNFRGWYITTQNLQGPLSWTVKEQCVNLLAKKLWEELLDDEQPDITIMDWFEDSRLDQCVYELHVWLLAADRRTVIAQHHVAPRTNGRGPPGRWIQVSHVFRQYGPGVRFVYFQHKAKNRMEPGGLRRTRVTDSSVSVQLRE
B14: IGG2B_MOUSE (other)
chain: KTTPPSVYPLAPGCGDTTGSSVTLGCLVKGYFPESVTVTWNSGSLSSSVHTFPALLQSGLYTMSSSVTVPSSTWPSQTVTCSVAHPASSTTVDKKLEPSGPISTINPCPPCKECHKCPAPNLEGGPSVFIFPPNIKDVLMISLTPKVTCVVVDVSEDDPDVQISWFVNNVEVHTAQTQTHREDYNSTIRVVSTLPIQHQDWMSGKEFKCKVNNKDLPSPIERTISKIKGLVRAPQVYILPPPAEQLSRKDVSLTCLVVGFNPGDISVEWTSNGHTEENYKDTAPVLDSDGSYFIYSKLNMKTSKWEKTDSFSCNVRHEGLKNYYLKKTISRSPGK

The target in the experiment is CD82 (mouse) (mouse, UniProt P40237). Nature of the experiment: IP with anti CD82 antibodies, mouse muscle tissue, mass spectrometry.
Consider B1, for which the Total was 14 and the Unique worked out at 11.

On to B2, for which the Total came out at 3 and the Unique came out at 3.

On to B3, for which the Total is 25 and the Unique was 7.

Take B4: the Total stood at 1 and the Unique stood at 1.

B5 registered a Total of 2 and a Unique of 2.

As for B6, the Total was determined as 2 and the Unique came out at 2.

Turning to B7, the Total came out at 2 and the Unique came to 2.

Regarding B8, the Total worked out at 1 and the Unique amounted to 1.

The molecule B9 returned a Total of 3 and a Unique of 2.

In turn, B10 yielded a Total of 1 and a Unique of 1.

Consider B11, for which the Total amounted to 7 and the Unique was 7.

B12: the Total worked out at 2 and the Unique turned out to be 2.

B13 showed a Total of 2 and a Unique of 2.

Take B14: the Total stood at 1 and the Unique came out at 1.

(Values after patent US20220119489A1, “COMPOSITIONS AND METHODS FOR […] […] DYSTROPHY AND RELATED DISORDERS” (CHILDREN'S MEDICAL CENTER CORPORATION, published 2022).)
